{"source": "the RNAGym collection of RNA variant scans (doi:10.7554/elife.80360)", "parents": {"B1": {"name": "CPEB3 Ribozyme (parent)", "chain": "GGGGGCCACAGCAGAAGCGUUCACGUCGCGGCCCCUGUCAGAUUCUGGUGAAUCUGCGAAUUCUGCUGU"}}, "data": [{"variants_of": "B1", "assay": "self-cleavage, relative activity (ratio to wild type); higher = more cleavage; co-transcriptional", "values": [{"variant": "U62G U64G", "self-cleavage": 0.533}, {"variant": "C63A U69G", "self-cleavage": 0.991}, {"variant": "C63A U69A", "self-cleavage": 0.949}, {"variant": "C63A U69C", "self-cleavage": 1.07}, {"variant": "U64G U69G", "self-cleavage": 1.02}, {"variant": "U64G U69A", "self-cleavage": 0.97}, {"variant": "U64G U69C", "self-cleavage": 1.05}, {"variant": "U62C U69C", "self-cleavage": 1.03}, {"variant": "U62C U69A", "self-cleavage": 1.01}, {"variant": "U62C U69G", "self-cleavage": 0.984}, {"variant": "G65C U67C", "self-cleavage": 0.905}, {"variant": "G65C U67G", "self-cleavage": 0.905}, {"variant": "U61C U67C", "self-cleavage": 0.764}, {"variant": "U61C U67A", "self-cleavage": 0.741}, {"variant": "U61G C66G", "self-cleavage": 0.538}, {"variant": "U61G C66A", "self-cleavage": 0.495}, {"variant": "U62A U67A", "self-cleavage": 0.924}, {"variant": "U62A U67C", "self-cleavage": 0.908}, {"variant": "U62G G65A", "self-cleavage": 0.285}, {"variant": "U62G G65C", "self-cleavage": 0.475}, {"variant": "U62G G68A", "self-cleavage": 0.894}, {"variant": "U62G G68U", "self-cleavage": 0.683}, {"variant": "C66A G68C", "self-cleavage": 0.84}, {"variant": "C66A G68U", "self-cleavage": 0.799}, {"variant": "G65U U67G", "self-cleavage": 0.92}, {"variant": "G65U U67A", "self-cleavage": 0.848}, {"variant": "G65U U67C", "self-cleavage": 0.78}, {"variant": "U62A G65A", "self-cleavage": 0.546}, {"variant": "U61G", "self-cleavage": 0.935}, {"variant": "U62C U67G", "self-cleavage": 0.865}, {"variant": "U62C U67C", "self-cleavage": 0.687}, {"variant": "U62C U67A", "self-cleavage": 0.738}, {"variant": "G65U G68C", "self-cleavage": 0.852}, {"variant": "U62C C66A", "self-cleavage": 0.5}, {"variant": "U62C C63G", "self-cleavage": 0.545}, {"variant": "U62C C63U", "self-cleavage": 0.795}, {"variant": "U62G U67A", "self-cleavage": 0.764}, {"variant": "U62A U64C", "self-cleavage": 0.61}, {"variant": "U62A U64A", "self-cleavage": 0.452}, {"variant": "U64C G65A", "self-cleavage": 0.565}, {"variant": "U64C G65C", "self-cleavage": 0.504}, {"variant": "G65C C66G", "self-cleavage": 0.65}, {"variant": "G65C C66U", "self-cleavage": 0.816}, {"variant": "U61G U67A", "self-cleavage": 0.841}, {"variant": "U61G U67C", "self-cleavage": 0.708}, {"variant": "U64C C66U", "self-cleavage": 0.624}, {"variant": "U64C C66G", "self-cleavage": 0.555}, {"variant": "C66A U69A", "self-cleavage": 0.969}, {"variant": "U61G G65U", "self-cleavage": 0.483}, {"variant": "U61G G65A", "self-cleavage": 0.672}, {"variant": "C63G U67G", "self-cleavage": 0.752}, {"variant": "C63G U67C", "self-cleavage": 0.569}, {"variant": "C63G G68A", "self-cleavage": 0.849}, {"variant": "C63G G68U", "self-cleavage": 0.584}, {"variant": "U61G G68C", "self-cleavage": 0.867}, {"variant": "U61G G68A", "self-cleavage": 0.988}, {"variant": "U61G G68U", "self-cleavage": 0.826}, {"variant": "U62A C63A", "self-cleavage": 0.822}, {"variant": "U62A C63G", "self-cleavage": 0.481}, {"variant": "G65U C66A", "self-cleavage": 0.669}, {"variant": "G65U C66U", "self-cleavage": 0.55}, {"variant": "G65U C66G", "self-cleavage": 0.814}, {"variant": "U64A G68U", "self-cleavage": 0.922}, {"variant": "U64A G68C", "self-cleavage": 0.913}, {"variant": "U62G C66U", "self-cleavage": 0.579}, {"variant": "U62G C66A", "self-cleavage": 0.376}, {"variant": "U64A C66U", "self-cleavage": 0.668}, {"variant": "U64A C66G", "self-cleavage": 0.417}, {"variant": "U64A C66A", "self-cleavage": 0.502}, {"variant": "U64G C66G", "self-cleavage": 0.442}, {"variant": "U64G C66U", "self-cleavage": 0.558}, {"variant": "G65A U69G", "self-cleavage": 0.947}, {"variant": "C63U U69G", "self-cleavage": 1.04}, {"variant": "C63U U69A", "self-cleavage": 1.02}, {"variant": "U64C U67A", "self-cleavage": 0.864}, {"variant": "U64C U67C", "self-cleavage": 0.764}, {"variant": "U62A U69G", "self-cleavage": 1}, {"variant": "U62A U69A", "self-cleavage": 0.942}, {"variant": "U62C G68U", "self-cleavage": 0.934}, {"variant": "U62C G68A", "self-cleavage": 1}, {"variant": "U62C G68C", "self-cleavage": 0.806}, {"variant": "C66G U67G", "self-cleavage": 0.909}, {"variant": "C66G U67A", "self-cleavage": 0.937}, {"variant": "U61C U69G", "self-cleavage": 0.974}, {"variant": "U61C U69C", "self-cleavage": 1.02}, {"variant": "U64A G65A", "self-cleavage": 0.701}, {"variant": "C63A G65A", "self-cleavage": 0.509}, {"variant": "C63A G65U", "self-cleavage": 0.789}, {"variant": "G65C G68A", "self-cleavage": 0.678}, {"variant": "U62C", "self-cleavage": 0.927}, {"variant": "U62G", "self-cleavage": 0.925}, {"variant": "U62A", "self-cleavage": 0.957}, {"variant": "U62C U64A", "self-cleavage": 0.507}, {"variant": "U62C U64G", "self-cleavage": 0.489}, {"variant": "U62C U64C", "self-cleavage": 0.46}, {"variant": "C63U U64G", "self-cleavage": 0.777}, {"variant": "C66G", "self-cleavage": 0.937}, {"variant": "C66A", "self-cleavage": 0.911}, {"variant": "C63A U64C", "self-cleavage": 0.639}, {"variant": "C63A U64A", "self-cleavage": 0.62}, {"variant": "U61C U64G", "self-cleavage": 0.474}, {"variant": "U61C U64C", "self-cleavage": 0.31}, {"variant": "U62A G68C", "self-cleavage": 0.949}, {"variant": "U62A G68A", "self-cleavage": 0.924}, {"variant": "U64C U69C", "self-cleavage": 1.07}, {"variant": "U62C G65C", "self-cleavage": 0.488}, {"variant": "U64G G68C", "self-cleavage": 0.799}, {"variant": "U64G G68U", "self-cleavage": 0.923}, {"variant": "U64G G68A", "self-cleavage": 1}, {"variant": "G65A C66G", "self-cleavage": 0.797}, {"variant": "G65A C66U", "self-cleavage": 0.77}, {"variant": "C63U G68A", "self-cleavage": 0.967}, {"variant": "C63U C66U", "self-cleavage": 0.863}, {"variant": "C63U C66A", "self-cleavage": 0.473}, {"variant": "C63G C66U", "self-cleavage": 0.387}, {"variant": "C63G C66A", "self-cleavage": 0.248}, {"variant": "C63G C66G", "self-cleavage": 0.487}, {"variant": "C63G U69A", "self-cleavage": 0.864}, {"variant": "C63G U69C", "self-cleavage": 1.04}, {"variant": "G65A U67G", "self-cleavage": 0.887}, {"variant": "G65A U67C", "self-cleavage": 0.844}, {"variant": "G65A U67A", "self-cleavage": 0.793}, {"variant": "U61G U69G", "self-cleavage": 0.999}, {"variant": "C66A U67A", "self-cleavage": 0.977}, {"variant": "C66A U67G", "self-cleavage": 0.891}, {"variant": "C63A G68A", "self-cleavage": 0.964}, {"variant": "C63A G68U", "self-cleavage": 0.878}, {"variant": "C63A G68C", "self-cleavage": 0.931}, {"variant": "C63A U67G", "self-cleavage": 0.758}, {"variant": "C63A U67A", "self-cleavage": 0.757}, {"variant": "C63A U67C", "self-cleavage": 0.651}, {"variant": "C63U U67C", "self-cleavage": 0.968}, {"variant": "C63U U67G", "self-cleavage": 0.985}, {"variant": "U62G C63G", "self-cleavage": 0.334}, {"variant": "U62G C63A", "self-cleavage": 0.856}, {"variant": "U62G C63U", "self-cleavage": 0.661}, {"variant": "C66G G68A", "self-cleavage": 0.96}, {"variant": "U64G G65A", "self-cleavage": 0.578}, {"variant": "U64G G65C", "self-cleavage": 0.679}, {"variant": "G65A G68A", "self-cleavage": 0.941}, {"variant": "G65A G68U", "self-cleavage": 0.813}, {"variant": "G65A G68C", "self-cleavage": 0.945}, {"variant": "U62A C66A", "self-cleavage": 0.499}, {"variant": "U62A C66G", "self-cleavage": 0.458}, {"variant": "G65C U69A", "self-cleavage": 0.828}, {"variant": "U64C G68A", "self-cleavage": 0.931}, {"variant": "U64C G68C", "self-cleavage": 0.911}, {"variant": "G65U U69C", "self-cleavage": 0.97}, {"variant": "G65U U69A", "self-cleavage": 0.835}, {"variant": "G65U", "self-cleavage": 0.877}, {"variant": "G65C", "self-cleavage": 0.758}, {"variant": "G65A", "self-cleavage": 0.954}, {"variant": "C63G U64G", "self-cleavage": 0.471}, {"variant": "U64A U67A", "self-cleavage": 0.895}, {"variant": "U64A U67G", "self-cleavage": 0.922}, {"variant": "U61G U64G", "self-cleavage": 0.397}, {"variant": "U61G U64A", "self-cleavage": 0.555}, {"variant": "C63G G65C", "self-cleavage": 0.366}, {"variant": "C63G", "self-cleavage": 0.87}, {"variant": "C63U", "self-cleavage": 0.991}, {"variant": "C63A", "self-cleavage": 0.919}, {"variant": "U61G C63G", "self-cleavage": 0.396}, {"variant": "U61G C63U", "self-cleavage": 0.57}, {"variant": "U61G C63A", "self-cleavage": 0.673}, {"variant": "U62G U69A", "self-cleavage": 0.937}, {"variant": "U62G U69G", "self-cleavage": 1.01}, {"variant": "U62G U69C", "self-cleavage": 1.03}]}]}
